Measured values taken from patent US20150315289A1 (published 2015).

Target: MUC1 (human, UniProt P15941 24-1255, limits assumed)
Test: immunofluorescence co-localisation on human carcinoma cell lines; MUC5AC siRNA knockdown

B1: humanized PAM4 (hPAM4) IgG (antibody, V domains shown)
VH: QVQLQQSGAEVKKPGASVKVSCEASGYTFPSYVLHWVKQAPGQGLEWIGYINPYNDGTQYNEKFKGKATLTRDTSINTAYMELSRLRSDDTAVYYCARGFGGSYGFAYWGQGTLVTVSS
VL: DIQLTQSPSSLSASVGDRVTMTCSASSSVSSSYLYWYQQKPGKAPKLWIYSTSNLASGVPARFSGSGSGTDFTLTISSLQPEDSASYFCHQWNRYPYTFGGGTRLEIKR
notes: humanized IgG1 kappa; used HRP-conjugated in some ELISAs and blots; also called clivatuzumab; HRP-hPAM4
- binding result: no binding
